Assay results published in patent US20090291081A1 (AbbVie / Abbott, published 2009).
Substitutions are numbered along the chain they refer to.

B1: ABT2-13 (other)
VH: EVQLLESGGGLVQPGGSLRLSCAASGFTFRDYVMYWARQAPGKGLEWVSRIDPMGSSTYYADSVKGRFTISRDNSKNTLYLQMNSLRAEDTAVYYCAKPEGNFDYWGQGTLVTVSS
B2: ABT2-60 (other)
VL: DIQMTQSPSSLSASVGDRVTITCRASQSIRVFLSWYQQKPGKAPKLLIYNASNLQSGVPSRFSGSGSGTDFTLTISSLQPEDFATYYCQQRALYPTTFGQGTKVEIKR
notes: VK dAb
B3: ABT2-59 (other)
VL: B2 VL with R30N
notes: VK dAb
B4: ABT2-61 (other)
VL: B2 VL with N53H
notes: VK dAb
B5: ABT2-62 (other)
VL: B2 VL with R30Q, V31T, F32Y
notes: VK dAb
B6: ABT2-65 (other)
VH: EVQLLESGGGLVQPGGSLRLSCAASGFTFEDYQMGWVRQAPGKGLEWVSSISAMGNRTYYADSVKGRFTISRDDSKNTLYLQMNSLRAEDTAVYYCAKNLVRTQSKMWMFDYWGQGTLVTVSS
B7: ABT2-65-6 (other)
VH: B6 VH with K98Q
notes: VH dAb
B8: ABT2-65-7 (other)
VH: B6 VH with M54T, K98Q, Q104R, S105I
notes: VH dAb
B9: ABT2-65-8 (other)
VH: B6 VH with K98Q, T103M, Q104D, K106R, M107R
B10: ABT2-65-47 (other)
VH: B6 VH with N99W, L100R, V101K, M107L, W108G, M109Y
notes: VH dAb
B11: ABT2-65-48 (other)
VH: B6 VH with N99W, L100Q, V101M, M107L, W108G, M109Y
notes: VH dAb
B12: ABT2-65-79 (other)
VH: B6 VH with A23V, E89G, K98Q, T103L, Q104G, S105R, K106S, M107R, L118M
notes: VH dAb
B13: ABT2-65-81 (other)
VH: B6 VH with A23V, D31E, K98Q, T103L, Q104G, S105R, K106S, M107R
notes: VH dAb
B14: ABT2-65-82 (other)
VH: B6 VH with Q13R, A23V, S75P, K98Q, T103L, Q104G, S105R, K106S, M107R
notes: VH dAb
B15: ABT2-65-85 (other)
VH: B6 VH with L5M, A23V, T69A, E89K, K98Q, T103L, Q104G, S105R, K106S, M107R
notes: VH dAb
B16: ABT2-65-89 (other)
VH: B6 VH with A23V, K98Q, L100M, T103L, Q104G, S105R, K106S, M107R
notes: VH dAb
B17: ABT2-65-113 (other)
VH: B6 VH with E30V, D31Q, K98Q, T103L, Q104G, S105R, K106S, M107R
notes: VH dAb
B18: ABT2-65-34 (other)
VH: B6 VH with K98Q, Q104R, M107R
B19: ABT2-65-35 (other)
VH: B6 VH with A23V, K98Q, T103L, Q104R, S105R, K106S, M107R
B20: ABT2-65-160 (other)
VH: B6 VH with A23V, N56P, K98Q, T103L, Q104G, S105R, K106S, M107R
B21: ABT2-65-163 (other)
VH: B6 VH with A23V, N56G, K98Q, T103L, Q104G, S105R, K106S, M107R
B22: ABT2-65-502 (other)
VH: B6 VH with A23V, I51V, D74G, K98Q, T103L, Q104G, S105R, K106S, M107R
B23: ABT2-65-504 (other)
VH: EVQLLESGGGLVQPGGSLRLSCVASGFTFEDYQMGWVRQAPGKGLERVSSVSAMGNRTHYADSVKGRFTISRDDSKNTLYLQMNSLRAGDTAVYYCAQNLVRLGRSRWMFDYWGQGTLVTVSS
B24: ABT2-65-510 (other)
VH: B23 VH with R47W, V51I, H59Y, K76E, G89E
B25: ABT2-65-512 (other)
VH: B23 VH with R38H, R47W, V51I, H59Y, G89E
B26: ABT2-66 (other)
VH: EVQLLESGGGLVQPGGSLRLSCAASGFTFSHYTMAWVRQAPGKGLEWVSTIGSSGNSTYYADSVKGRFTISRDNSKNTLYLQMNSLRAEDTAVYYCAQMRGPYYTFDYRGQGTLVTVSS
B27: ABT2-67 (other)
VL: DIQMTQSPSSLSASVGDRVTITCRASQYIGEHLAWYQQKPGKAPKLLIYHNSALQSGVPSRFSGSGSGTDFTLTISSLQPEDFATYYCQQHAFLPNTFGQGTKVEIKR
B28: ABT2-68 (other)
VL: DIQMTQSPSSLSASVGDRVTITCRASQNIWYHLNWYQQKPGKAPKLLIYLGSRLQSGVPSRFSGSGSGTDFTLTISSLQPEDFATYYCQQIHHDPFTFGQGTKVEIKR
B29: ABT2-69 (other)
VH: EVQLLESGGGLVQPGGSLRLSCAASGFTFTGYDMAWVRQAPGKGLEWVSVIYAYGESTYYADSVKGRFTISRDNSKNTLYLQMNSLRAEDTAVYYCAKVYSNQFDYWGQGTLVTVSS
B30: ABT2-72 (other)
VH: B29 VH with T30R, G31A, A35G, Y54W, E56T, V99T, Y100S, N102D, Q103G
B31: ABT2-76 (other)
VL: B27 VL with Y28S, G30D, E31R, H32W, H50R, N51G, A53I, H91V, L94W, N96P
B32: ABT2-108-533X (other)
VH: EVQLLESGGGLVQPGGSLRLSCAASGFTFADEGMMWVRQAPGKGLEWVSRIGQDGKNTYYADSVKGRFTISRDNSKNTLYLQMNSLRAEDTAVYYCAKYTGRILGHHLFDYWGQGTLVTVSS
B33: ABT2-108-537X (other)
VH: B32 VH with A61R, D62M, S63D
B34: ABT2-108-538X (other)
VH: B32 VH with G52T, Q53Y, D54S

target: T1, human IL-1β (human, UniProt P01584 117-269); assay: cell-based or functional assay

Binder | ND50
B1 | 1000 nM
B2 | > 1000 nM
B3 | > 1000 nM
B4 | > 1000 nM
B5 | > 1000 nM
B6 | 505 nM
B7 | > 1000 nM
B8 | 200 nM
B9 | 3 nM
B10 | 80 nM
B11 | 80 nM
B12 | 2 nM
B13 | 2 nM
B14 | 2 nM
B15 | 2 nM
B16 | 2 nM
B17 | 3 nM

Binder | ND50
B18 | 20 nM
B19 | 4 nM
B20 | 2 nM
B21 | 2 nM
B22 | 2 nM
B23 | 4 nM
B24 | 1 nM
B25 | 3 nM
B26 | > 10000 nM
B27 | > 10000 nM
B28 | > 10000 nM
B29 | > 10000 nM
B30 | > 10000 nM
B31 | 500 nM
B32 | 5 nM
B33 | 206 nM
B34 | 5 nM

target: T1, human IL-1β; assay: IC50 column of Table 63; receptor binding assay presumed

Binder | IC50
B1 | 0.175 µM
B2 | 1 µM
B3 | 0.7 µM
B4 | 1 µM
B5 | 1 µM
B6 | 0.1 µM
B7 | 0.03 µM
B8 | 0.03 µM
B9 | 0.01 µM
B10 | 0.02 µM
B11 | 0.02 µM
B12 | 0.006 µM
B13 | 0.01 µM
B14 | 0.008 µM
B15 | 0.007 µM
B16 | 0.01 µM
B17 | 0.0033 µM
